Measurements taken from patent publication US20180215829A1 (CRESCENDO BIOLOGICS, published 2018).

Assays:
[1] = molecular target: T1, recombinant human IL-17RA Fc fusion protein (R&D Systems 177-IR-100) (human, UniProt Q96F46 33-320); experiment: receptor/ligand biochemical inhibition ELISA: VH competes with 1 nM IL-17A for coated IL-17RA-Fc
T1 construct: Bought protein; not shown: Fc domain of human IgG1
T1 sequence: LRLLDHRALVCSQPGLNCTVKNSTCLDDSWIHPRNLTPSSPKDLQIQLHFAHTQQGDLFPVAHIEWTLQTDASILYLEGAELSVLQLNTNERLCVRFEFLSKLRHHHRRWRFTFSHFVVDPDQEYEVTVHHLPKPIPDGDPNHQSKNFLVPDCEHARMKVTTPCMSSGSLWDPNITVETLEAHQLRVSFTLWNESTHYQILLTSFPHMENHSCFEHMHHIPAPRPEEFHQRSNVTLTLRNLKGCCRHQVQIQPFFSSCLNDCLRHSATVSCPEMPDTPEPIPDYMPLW
Procedure: VH, both purified and crude periplasmic extracts, were also tested for their ability to inhibit the interaction of IL-17A with recombinant IL-17RA-Fc. […] Following washing of excess coating antigen, as described above, the wells of the plate were incubated with 3% Marvel/PBS to block non-specific protein interactions. VH preparations, crude periplasmic extracts or purified VH, or suitable controls, were prepared with 1 nM recombinant IL-17A (Peprotech, cat# AF-200-17) in 3% skimmed milk powder/PBS solution in polypropylene plates or tubes. The mixture was then transferred to the assay plate and incubated for 1 hour at room temperature. Excess protein was removed by washing and bound IL-17A was detected by incubation with biotinylated anti-IL-17A Mab (R & D Systems, cat BAF317) followed by the addition of neutravidin-HRP (Pierce, cat#31030) and TMB substrate (Sigma, cat# T0440). The TMB reaction was stopped by addition of 0.5M H₂SO₄ and absorbances were measured at 450 nm in a plate reader.

[2] = molecular target: T2, human IL-17RA on HT1080 cells (human, UniProt Q96F46 33-866); experiment: cell-based or functional assay
T2 sequence: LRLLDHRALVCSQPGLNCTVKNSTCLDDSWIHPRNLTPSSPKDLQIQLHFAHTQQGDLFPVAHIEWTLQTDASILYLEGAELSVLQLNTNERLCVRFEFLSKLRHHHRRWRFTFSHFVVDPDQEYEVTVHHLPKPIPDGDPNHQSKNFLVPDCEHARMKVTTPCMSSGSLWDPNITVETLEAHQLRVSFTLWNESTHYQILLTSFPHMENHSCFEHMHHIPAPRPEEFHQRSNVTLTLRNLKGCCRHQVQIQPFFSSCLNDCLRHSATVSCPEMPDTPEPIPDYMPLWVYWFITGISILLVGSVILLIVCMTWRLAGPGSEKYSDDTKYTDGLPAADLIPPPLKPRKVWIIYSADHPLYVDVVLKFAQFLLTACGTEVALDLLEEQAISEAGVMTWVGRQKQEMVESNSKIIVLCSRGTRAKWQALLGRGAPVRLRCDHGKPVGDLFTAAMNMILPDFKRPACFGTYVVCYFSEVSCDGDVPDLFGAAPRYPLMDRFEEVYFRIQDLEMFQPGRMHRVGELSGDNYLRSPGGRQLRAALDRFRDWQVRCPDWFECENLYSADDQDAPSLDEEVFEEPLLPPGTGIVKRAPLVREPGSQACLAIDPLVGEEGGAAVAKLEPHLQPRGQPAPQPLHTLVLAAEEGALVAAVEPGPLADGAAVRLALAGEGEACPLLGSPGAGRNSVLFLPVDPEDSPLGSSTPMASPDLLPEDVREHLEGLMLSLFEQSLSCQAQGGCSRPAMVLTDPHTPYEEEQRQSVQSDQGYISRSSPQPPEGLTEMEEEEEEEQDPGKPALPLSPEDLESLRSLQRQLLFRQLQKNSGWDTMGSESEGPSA

[3] = molecular target: T2, human IL-17RA on HT1080 cells; experiment: cell-based or functional assay; remark: listed apart in the source
[4] = molecular target: T1, recombinant human IL-17RA Fc fusion …; experiment: BIAcore T200 single-cycle kinetics, IL-17RA-Fc captured on protein G chip, VH as analyte
Procedure: Binding kinetics of anti-IL-17RA VH antibodies were measured on a BIAcore® T200 instrument. For IL-17RA, first a protein G chip was prepared by diluting protein G to 20 ug/ml in acetate buffer, pH 4 (BIAcore®, cat# BR-100-49) and then coupled 1200 RU to a CM5 Series S chip using amine coupling chemistry. This surface was then used to capture IL-17RA Fc fusion protein from solution: IL-17RA at 10 ug/ml in HBS injected for 10 seconds at 30 ul/min flow rate would capture approximately 100-150 RU of IL-17RA onto the protein G surface.
Binding kinetics of anti-IL-17RA VH antibodies were determined by single-cycle kinetics. VH antibodies were prepared in dilution series (typically 1:3 dilution series starting with 100 nM VH at the highest concentration), and then injected over the antigen coated surfaces and also a blank surface, starting with the lowest concentration of VH and then working progressively up to the highest concentration. VH binding kinetics were then determined from the (blank subtracted) sensorgram traces using 1:1 binding models and BIAevaluation software.

[5] = molecular target: T1, recombinant human IL-17RA Fc fusion …; experiment: affinity against parent clone 2.1; method not given

- IC50 [1]: 1.4 nM
- IC50 (nM), cell-based assay [2]: 165 nM
- Cell assay IC50 [3]: 61 nM
- Kd [4]: 1.4 nM
- koff [4]: 0.000799 s⁻¹
- kon [4]: 579000 M⁻¹ s⁻¹
- fold improvement in affinity against clone 2.1 [5]: 10 fold
B1: VH clone 2.2 (VHH)
VHH: QVQLVQSGAEVKKPGASVKVSCKASGYPFTSYDINWVRQATGRSLEWMGWMNPTNGNTVYAQKFQDRVTMTRNTSISTAYMELSSLRSEDTAVYFCARGRRDDWKNNYWGQGTLVTVSS
notes: Human VH single domain antibody, no light chain; Optimised variant of clone 2.1; also called VH 2.2
